Results on 1 substance are retold here after paper PMC5000626, “Urinary Dopamine as a Potential Index of the Transport Activity of Multidrug and Toxin Extrusion in the Kidney” (International Journal of Molecular Sciences, 2016).

This data set deals with NCCc1ccc(O)c(O)c1. As to the kind of experiment: cells, lysate or membranes. As to conditions: other: [3H]dopamine uptake at 1 min, HEK293 cells expressing hMATE2-K, mean ± S.E., n=3; pH 7.4; 37.0 °C.

hMATE2-K (Homo sapiens), sequence (chain, as listed by the source): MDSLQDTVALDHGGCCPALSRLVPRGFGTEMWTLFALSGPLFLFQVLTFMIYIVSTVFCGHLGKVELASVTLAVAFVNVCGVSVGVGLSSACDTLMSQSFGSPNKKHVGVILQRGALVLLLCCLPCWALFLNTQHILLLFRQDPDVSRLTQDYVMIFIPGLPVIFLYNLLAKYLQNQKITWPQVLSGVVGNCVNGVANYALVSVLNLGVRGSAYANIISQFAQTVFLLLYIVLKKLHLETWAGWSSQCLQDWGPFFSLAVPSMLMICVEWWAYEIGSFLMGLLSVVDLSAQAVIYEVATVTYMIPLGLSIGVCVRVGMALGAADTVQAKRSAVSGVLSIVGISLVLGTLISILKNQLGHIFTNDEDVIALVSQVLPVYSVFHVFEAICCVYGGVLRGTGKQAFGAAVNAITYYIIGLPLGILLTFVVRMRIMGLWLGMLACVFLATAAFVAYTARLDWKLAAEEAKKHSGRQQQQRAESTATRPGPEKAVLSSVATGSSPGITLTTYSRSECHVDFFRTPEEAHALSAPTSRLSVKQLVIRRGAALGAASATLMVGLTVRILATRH

The Km is the concentration of substrate that gives half-maximal velocity. With hMATE2-K (Homo sapiens), the Km was 2480 ± 650 µM.
